In one assay the target is HLA-A*68:02. Nature of the assay: IEDB peptide-MHC binding, cellular MHC/competitive/fluorescence; ≥ and ≤ were set here for values at or beyond the usual limits of such assays.
The next assay deals with HLA-A*02:03. Briefly: IEDB peptide-MHC binding, purified MHC/competitive/radioactivity; ≥ and ≤ were set here for values at or beyond the usual limits of such assays.
The target of another assay is HLA-A*02:01. Described as above.
In another assay the target is HLA-A*02:02. Described as above.
Another assay addresses HLA-A*02:06. The description is as above.
[1] abbreviates: source organism: Vaccinia virus WR.
Where [2] appears, read: source organism: Hepacivirus hominis.
Where [3] appears, read: source organism: Mammarenavirus brazilense.
Where [4] appears, read: source organism: Mammarenavirus machupoense.
The mark [5] stands for this setting: source organism: Mammarenavirus whitewaterense.

These results are taken from the Immune Epitope Database (IEDB).

In general, IC50 refers to the concentration that inhibits the measured activity by half.

A value given as a limit tells only on which side of the number the result lay.

For the sequence GLFDINVIGL, the half-inhibitory concentration (IC50) with HLA-A*68:02 (setting [1]) was determined as 7080 nM; with HLA-A*02:03 (setting [1]) it was 1.4 nM; with HLA-A*02:01 (setting [1]), 13 nM; in the assay with HLA-A*02:02 (setting [1]) it was 0.16 nM; with HLA-A*02:06 (setting [1]) it was 240 nM.

Consider GLIHACMLV, for which the half-inhibitory concentration (IC50) in the assay with HLA-A*68:02 (setting [2]) is 37400 nM; in the assay with HLA-A*02:03 (setting [2]), 1.9 nM; with HLA-A*02:01 (setting [2]), 1.3 nM; with HLA-A*02:02 (setting [2]) it was 1.5 nM; with HLA-A*02:06 (setting [2]) it was 12 nM.

In the case of GLKIEEIEKV, the concentration for half-maximal inhibition (IC50) is ≥ 70000 nM in the assay with HLA-A*68:02 (setting [1]); 6.6 nM in the assay with HLA-A*02:03 (setting [1]); 65 nM with HLA-A*02:01 (setting [1]); 15 nM with HLA-A*02:02 (setting [1]); 198 nM in the assay with HLA-A*02:06 (setting [1]).

GLLDSIKMI: the concentration for half-maximal inhibition (IC50) was ≥ 70000 nM in the assay with HLA-A*68:02 (setting [1]); 14 nM with HLA-A*02:03 (setting [1]); 15 nM with HLA-A*02:01 (setting [1]); 80 nM in the assay with HLA-A*02:02 (setting [1]); 43 nM with HLA-A*02:06 (setting [1]).

Regarding GLLEWIFRA, the IC50 in the assay with HLA-A*68:02 (setting [3]) is 53100 nM; with HLA-A*02:03 (setting [3]), 226 nM; with HLA-A*02:01 (setting [3]) it was 1.2 nM; with HLA-A*02:02 (setting [3]), 22 nM; in the assay with HLA-A*02:06 (setting [3]), 7.1 nM.

For GLLGCIITSL, the half-maximal inhibitory concentration (IC50) with HLA-A*68:02 (setting [2]) amounted to 48900 nM; with HLA-A*02:03 (setting [2]) it was 3.1 nM; in the assay with HLA-A*02:01 (setting [2]), 15 nM; with HLA-A*02:02 (setting [2]) it was 35 nM; in the assay with HLA-A*02:06 (setting [2]) it was 316 nM.

With GLLLLCVGV, the IC50 in the assay with HLA-A*68:02 (setting [2]) came to 49200 nM; in the assay with HLA-A*02:03 (setting [2]), 285 nM; with HLA-A*02:01 (setting [2]), 43 nM; with HLA-A*02:02 (setting [2]) it was 479 nM; with HLA-A*02:06 (setting [2]), 892 nM.

In the case of GLLYFILFFV, the IC50 with HLA-A*68:02 (setting [2]) is 23200 nM; with HLA-A*02:03 (setting [2]) it was 187 nM; with HLA-A*02:01 (setting [2]), 51 nM; with HLA-A*02:02 (setting [2]), 141 nM; with HLA-A*02:06 (setting [2]), 678 nM.

With GLRQQLEDI, the IC50 with HLA-A*68:02 (setting [1]) was ≥ 70000 nM; with HLA-A*02:03 (setting [1]), 4.7 nM; in the assay with HLA-A*02:01 (setting [1]), 125 nM; in the assay with HLA-A*02:02 (setting [1]), 43 nM; with HLA-A*02:06 (setting [1]), 4310 nM.

GLSQFTHTV: the half-inhibitory concentration (IC50) with HLA-A*68:02 (setting [4]) came out at 15100 nM; with HLA-A*02:03 (setting [4]), 7.7 nM; with HLA-A*02:01 (setting [4]), 18 nM; with HLA-A*02:02 (setting [4]) it was 5.3 nM; with HLA-A*02:06 (setting [4]), 332 nM.

Regarding GLVDVCFWS, the IC50 came to 8220 nM with HLA-A*68:02 (setting [5]); 1070 nM with HLA-A*02:03 (setting [5]); 112 nM with HLA-A*02:01 (setting [5]); 116 nM with HLA-A*02:02 (setting [5]); 534 nM in the assay with HLA-A*02:06 (setting [5]).

In the case of GLYIPGTSVI, the 50% inhibitory concentration (IC50) with HLA-A*68:02 (setting [1]) was ≥ 70000 nM; with HLA-A*02:03 (setting [1]) it was 0.19 nM; with HLA-A*02:01 (setting [1]), 1570 nM; with HLA-A*02:02 (setting [1]) it was 92 nM; in the assay with HLA-A*02:06 (setting [1]), 3620 nM.

As to GMQFDKVYL, the IC50 with HLA-A*68:02 (setting [1]) was determined as 17200 nM; with HLA-A*02:03 (setting [1]) it was 277 nM; with HLA-A*02:01 (setting [1]), 72 nM; with HLA-A*02:02 (setting [1]), 13 nM; with HLA-A*02:06 (setting [1]), 1900 nM.

As for GMSIVCIVA, the IC50 in the assay with HLA-A*68:02 (setting [1]) was 9840 nM; with HLA-A*02:03 (setting [1]), 656 nM; with HLA-A*02:01 (setting [1]), 83 nM; with HLA-A*02:02 (setting [1]), 190 nM; in the assay with HLA-A*02:06 (setting [1]), 4510 nM.

As to GMYYPTNDI, the 50% inhibitory concentration (IC50) is ≥ 70000 nM with HLA-A*68:02 (setting [1]); 8.7 nM with HLA-A*02:03 (setting [1]); 268 nM with HLA-A*02:01 (setting [1]); 53 nM in the assay with HLA-A*02:02 (setting [1]); 1680 nM in the assay with HLA-A*02:06 (setting [1]).

As to GVSGLYIPGT, the IC50 came to 15800 nM with HLA-A*68:02 (setting [1]); 2150 nM in the assay with HLA-A*02:03 (setting [1]); 4730 nM with HLA-A*02:01 (setting [1]); 140 nM in the assay with HLA-A*02:02 (setting [1]); 32 nM with HLA-A*02:06 (setting [1]).

On to HLDGEVLSL, for which the half-maximal inhibitory concentration (IC50) with HLA-A*68:02 (source organism: SARS-CoV1) came to 13600 nM; with HLA-A*02:03 (source organism: SARS-CoV1), 131 nM; with HLA-A*02:01 (source organism: SARS-CoV1), 67 nM; in the assay with HLA-A*02:02 (source organism: SARS-CoV1), 66 nM; in the assay with HLA-A*02:06 (source organism: SARS-CoV1), 160 nM.

As for IALCKVTVPT, the half-inhibitory concentration (IC50) with HLA-A*68:02 (setting [1]) is ≥ 70000 nM; with HLA-A*02:03 (setting [1]), 2220 nM; with HLA-A*02:01 (setting [1]), 2120 nM; with HLA-A*02:02 (setting [1]), 1960 nM; with HLA-A*02:06 (setting [1]), 652 nM.

As to IAMWLLLLSI, the 50% inhibitory concentration (IC50) with HLA-A*68:02 (source organism: SARS-CoV1) stood at 17200 nM; with HLA-A*02:03 (source organism: SARS-CoV1), 1900 nM; with HLA-A*02:01 (source organism: SARS-CoV1), 216 nM; with HLA-A*02:02 (source organism: SARS-CoV1), 86 nM; with HLA-A*02:06 (source organism: SARS-CoV1), 498 nM.

Consider IIGEPIIVA, for which the IC50 was 6390 nM with HLA-A*68:02 (setting [1]); 4780 nM in the assay with HLA-A*02:03 (setting [1]); 1440 nM with HLA-A*02:01 (setting [1]); 2320 nM in the assay with HLA-A*02:02 (setting [1]); 1350 nM with HLA-A*02:06 (setting [1]).

Take ILDNAAKYV: the IC50 with HLA-A*68:02 (setting [1]) was determined as 22700 nM; with HLA-A*02:03 (setting [1]), 261 nM; with HLA-A*02:01 (setting [1]) it was 14 nM; with HLA-A*02:02 (setting [1]) it was 126 nM; with HLA-A*02:06 (setting [1]), 1810 nM.

For ILDNLRCHSA, the concentration for half-maximal inhibition (IC50) with HLA-A*68:02 (setting [1]) was 12800 nM; with HLA-A*02:03 (setting [1]) it was 69 nM; in the assay with HLA-A*02:01 (setting [1]) it was 63 nM; in the assay with HLA-A*02:02 (setting [1]), 972 nM; with HLA-A*02:06 (setting [1]), 297 nM.

Consider ILFLTLIVFT, for which the concentration for half-maximal inhibition (IC50) in the assay with HLA-A*68:02 (source organism: SARS-CoV1) was determined as 7110 nM; in the assay with HLA-A*02:03 (source organism: SARS-CoV1) it was 1070 nM; with HLA-A*02:01 (source organism: SARS-CoV1), 21 nM; in the assay with HLA-A*02:02 (source organism: SARS-CoV1) it was 24 nM; in the assay with HLA-A*02:06 (source organism: SARS-CoV1), 703 nM.
